For two molecules, IC50 results are on record in publication PMC6135694, “A high-throughput fluorescence polarization assay for discovering inhibitors targeting the DNA-binding domain of signal transducer and activator of transcription 3 (STAT3)”.

The target of the data set is STAT3 127-688 (UniProt P40763 127-688). The data set is described as follows: competition (fluorescence polarization); competitor vs 20 nM Bodipy-DNA N1, 480 nM protein; 24 hr, 4 C; FP: 20 nM Bodipy-DNA, 480 nM STAT3 127-688, 25 mM Tris pH 8.5 (protein purification and DNA annealing buffer; full assay buffer not in material), NaCl < 200 uM. To be noted: protein: recombinant, blunt.
Sequence of STAT3 127-688 (P40763 127-688): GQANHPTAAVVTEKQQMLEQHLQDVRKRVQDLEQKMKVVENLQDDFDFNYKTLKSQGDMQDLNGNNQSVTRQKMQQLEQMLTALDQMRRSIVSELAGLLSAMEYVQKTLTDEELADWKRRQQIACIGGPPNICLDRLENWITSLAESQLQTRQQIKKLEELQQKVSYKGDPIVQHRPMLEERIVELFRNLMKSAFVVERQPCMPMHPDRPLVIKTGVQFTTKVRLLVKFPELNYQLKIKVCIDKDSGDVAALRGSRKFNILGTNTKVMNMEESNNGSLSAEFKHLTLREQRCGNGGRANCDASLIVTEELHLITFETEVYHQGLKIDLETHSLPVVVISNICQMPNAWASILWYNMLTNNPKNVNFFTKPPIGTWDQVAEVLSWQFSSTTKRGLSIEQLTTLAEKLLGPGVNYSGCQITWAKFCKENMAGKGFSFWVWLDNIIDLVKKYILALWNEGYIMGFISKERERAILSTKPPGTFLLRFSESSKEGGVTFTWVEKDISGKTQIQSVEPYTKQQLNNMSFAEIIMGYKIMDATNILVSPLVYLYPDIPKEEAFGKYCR

B1: unlabelled consensus DNA 12-mer (dsDNA)
DNA 1: ATTTCCCGTAAA
DNA 2: TTTACGGGAAAT
Turning to B1, the IC50 is 0.3 ± 0.2 µM.

B2: unlabelled non-consensus DNA 12-mer (dsDNA)
DNA 1: GTACCATGGTAC
DNA 2: GTACCATGGTAC
With B2, the IC50 (self-complementary, 2 copies of strand) is 2.3 ± 0.66 µM.
